{"source": "patent US12214046B2", "about": "“Protein-loaded PLGA nanospheres” (West Virginia University Board of Governors on behalf of …, priority 2019, dated 2025)", "test": "In vivo induction of free IL-12 toxicity in healthy mice (blood immunophenotyping by flow cytometry)", "parameters": "species or system BALB/c mice", "conditions": "100 ng or 100 ug retro-orbital, baseline vs 48 h", "protocol": "Red blood cells were lysed with Red Blood Cell (RBC) Lysis Solution (Miltenyi Biotec, Auburn, CA). Single cell suspensions were split and incubated with optimized lymphoid (L) and myeloid (M) antibody panels according to the manufacturer's instructions: a minimum of 1×104 events were analyzed for each sample.\nTwo groups of four BALB/c mice (two female and two male per group) were cheek bled by piercing the facial venous plexus with a sterile 4 mm Goldenrod Animal Lancet (Braintree Scientific. Braintree. MA) to gather 100 μL whole blood for baseline immunophenotyping. Immediately following cheek bleeds, each group was given a retro-orbital (r.o.) injection of either a low (100 ng) or high (100 ug) dose of free recombinant mouse (rm) IL-12 (eBiolegend. San Diego. CA) with 0.1% mouse serum albumin (MSA. Sigma. St. Louis, MO) in 150 μL DPBS. At 24 and 48 hours following r.o. injections, mice underwent additional cheek bleeds for immunophenotyping.\nTwelve BALB/c mice were cheek bled for 100 μL whole blood (baseline) before being dosed with either 100 ng (L: low dose) or 100 ug (H: high dose) of recombinant mouse (rm) IL-12 via retro-orbital (r.o.) injection. Mice were cheek bled again at 24 and 48 hours (48 h), and blood samples were immunophenotyped via flow cytometry. CD8^−CD4^+ helper T cells (left, white). CD4^−CD8^+ cytotoxic T cells (middle, gray), and CD8^−CD4^+FOXP3^+CD25^+/− regulatory T cells (right. black) were assessed for the extent of PD1^+TIM-3^+ positivity, which can be indicative of exhaustion. Shown in FIG. 17 are T cell data from baseline and 48 h time points. Individual bars (top half) represent group averages+SD. […] Baseline blood samples (n=4:2 male and 2 female per group) were compared to 48 h samples using unpaired two-tailed/tests, * p<0.05, ** p<0.01. *** p<0.001.\nTwelve BALB/c mice were cheek bled for 100 μL whole blood (baseline) before being dosed with either 100 ng (L: low dose) or 100 ug (H: high dose) of recombinant mouse (rm) IL-12 via retro-orbital (r.o.) injection. […]"}
{"molecule": "IL-12: Recombinant mouse IL-12 (p70), immunostimulatory cytokine, purchased from Biolegend (protein, UniProt P43431 23-215; P43432 23-335, looked up) Interleukin-12 subunit alpha: RVIPVSGPARCLSQSRNLLKTTDDMVKTAREKLKHYSCTAEDIDHEDITRDQTSTLKTCLPLELHKNESCLATRETSSTTRGSCLPPQKTSLMMTLCLGSIYEDLKMYQTEFQAINAALQNHNHQQIILDKGMLVAIDELMQSLNHNGETLRQKPPVGEADPYRVKMKLCILLHAFSTRVVTINRVMGYLSSA Interleukin-12 subunit beta: MWELEKDVYVVEVDWTPDAPGETVNLTCDTPEEDDITWTSDQRHGVIGSGKTLTITVKEFLDAGQYTCHKGGETLSHSHLLLHKKENGIWSTEILKNFKNKTFLKCEAPNYSGRFTCSWLVQRNMDLKFNIKSSSSSPDSRAVTCGMASLSAEKVTLDQRDYEKYSVSCQEDVTCPTAEETLPIELALEARQQNKYENYSTSFFIRDIIKPDPPKNLQMKPLKNSQVEVSWEYPDSWSTPHSYFSLKFFVRIQRKKEKMKETEEGCNQKGAFLVEKTSTEVQCKGGNVCVQAQDRYYNSSCSKWACVPCRVRS", "values": [{"measurement": "effect on PMN-MDSC in peripheral blood", "value": "Polymorphonuclear-Myeloid-Derived Suppressor Cell (PMN-MDSC) Myelocytosis"}, {"measurement": "effect on T lymphocyte subsets in peripheral blood (PD1+TIM-3+ positivity)", "value": "T cell exhaustion of helper, cytotoxic, and regulatory T lymphocyte subsets"}, {"measurement": "effect on circulating Natural Killer (NK) cells", "value": "Decrease of Circulating Natural Killer (NK) Cells"}]}
